Laboratory results: the Human Domainome abundance scans (Beltran et al. 2025)
± gives the uncertainty stated by the source.

B1: Zinc finger homeobox protein 3, residues 2244 to 2299; numbered along this chain, Q15911 (parent)
chain: SSRTRFTDYQLRVLQDFFDANAYPKDDEFEQLSNLLNLPTRVIVVWFQNARQKARK
B2: Bromodomain adjacent to zinc finger domain protein 2B, residues 1927 to 1982; numbered along this chain, Q9UIF8 (parent)
chain: KSIMKVYCQICRKGDNEELLLLCDGCDKGCHTYCHRPKITTIPDGDWFCPACIAKA

Variants of: B1
Experiment: abundance fitness (aPCA) (normalised: wild type 0, dead -1); higher = more abundant; growth selection in yeast, the domain comes from the species named
Conditions: Homo sapiens

Abundance fitness of substitutions, site by site:
A50: S -0.084 ± 0.081, N 0.009 ± 0.097, M 0.047 ± 0.12, Q -0.197 ± 0.12, K -0.09 ± 0.12, E -0.095 ± 0.14, Y -0.196 ± 0.1, C -0.047 ± 0.093, P -1.01 ± 0.11, H -0.253 ± 0.095, W -0.496 ± 0.13, I -0.241 ± 0.11, T -0.08 ± 0.086, R -0.061 ± 0.079, V -0.322 ± 0.08, L -0.159 ± 0.073, D -1.01 ± 0.17, G -0.298 ± 0.081
V42: M -0.059 ± 0.13, K -0.036 ± 0.15, H 0.022 ± 0.19, G -0.056 ± 0.087, T 0.186 ± 0.15, L 0.039 ± 0.099, D 0.055 ± 0.19, E 0.174 ± 0.11, I -0.022 ± 0.33, Q -0.028 ± 0.15, Y -0.134 ± 0.17, N 0.003 ± 0.18, A -0.045 ± 0.11, W -0.146 ± 0.11, C -0.112 ± 0.13, P 0.026 ± 0.14, R -0.083 ± 0.082
R51: S -0.256 ± 0.28, H -0.382 ± 0.41, G -0.606 ± 0.43, C -0.168 ± 0.48, L -0.137 ± 0.34
V45: P -0.21 ± 0.076, W -0.136 ± 0.1, Y -0.19 ± 0.11, S 0.008 ± 0.074, T -0.028 ± 0.074, K -0.061 ± 0.095, I -0.055 ± 0.098, M -0.142 ± 0.083, L -0.12 ± 0.076, Q 0.046 ± 0.089, E 0.244 ± 0.1, H 0.032 ± 0.092, C 0.088 ± 0.097, A 0.004 ± 0.074, G 0.077 ± 0.071, D 0.155 ± 0.096, F -0.171 ± 0.1
N49: D 0.066 ± 0.18, W -0.252 ± 0.1, V -0.362 ± 0.11, S -0.056 ± 0.11, Y -0.497 ± 0.25, F -0.581 ± 0.28, Q -0.207 ± 0.14, A -0.222 ± 0.11, P -0.986 ± 0.2, H -0.249 ± 0.21, L -0.334 ± 0.093, G 0.046 ± 0.081, M -0.287 ± 0.15, T -0.119 ± 0.11, C -0.163 ± 0.12, K -0.024 ± 0.17, I -0.259 ± 0.17, R -0.207 ± 0.089, E 0.141 ± 0.13
K53: H 0.013 ± 0.081, G -0.005 ± 0.11, P -0.237 ± 0.082, T -0.008 ± 0.078, N 0.138 ± 0.09, D 0.202 ± 0.11, Y -0.12 ± 0.091, C -0.029 ± 0.095, M 0.008 ± 0.12, L -0.013 ± 0.07, A 0.032 ± 0.1, S 0.062 ± 0.074, E 0.162 ± 0.16, W -0.083 ± 0.16, R -0.116 ± 0.09, V -0.085 ± 0.092, Q -0.109 ± 0.1, I -0.019 ± 0.088
V44: G 0.034 ± 0.083, L -0.005 ± 0.11, E -0.059 ± 0.11, H -0.524 ± 0.27, I -0.223 ± 0.2, K -0.071 ± 0.16, S 0.08 ± 0.13, W -0.084 ± 0.12, M -0.031 ± 0.13, D 0.121 ± 0.19, A -0.134 ± 0.1, T -0.056 ± 0.15, Q -0.015 ± 0.15, R -0.093 ± 0.092, F -0.174 ± 0.32, Y -0.571 ± 0.21
T40: W -0.136 ± 0.11, L -0.105 ± 0.073, P -0.047 ± 0.089, K 0.221 ± 0.13, M 0.073 ± 0.11, Q -0.214 ± 0.11, R -0.139 ± 0.078, S 0.025 ± 0.073
I43: G -0.637 ± 0.11, M -0.439 ± 0.14, D -0.772 ± 0.18, K -0.744 ± 0.26, L -0.163 ± 0.11, A -0.56 ± 0.11, E -1.07 ± 0.21, V -0.056 ± 0.1, F -0.792 ± 0.24, N -1 ± 0.29, H -1.13 ± 0.28, C -0.36 ± 0.17, R -0.837 ± 0.094, S -0.845 ± 0.13, Q -0.637 ± 0.19, T -0.396 ± 0.12, W -0.879 ± 0.17
R41: M 0.005 ± 0.1, S 0.021 ± 0.073, K 0.074 ± 0.12, Y -0.119 ± 0.096, G 0.057 ± 0.079, F -0.011 ± 0.091, N 0.195 ± 0.093, L -0.075 ± 0.074, H 0.117 ± 0.087, W -0.167 ± 0.14, V 0.108 ± 0.081, C -0.002 ± 0.1, A 0.022 ± 0.079, D 0.173 ± 0.1, Q 0.018 ± 0.12, P -0.046 ± 0.09, I 0.052 ± 0.091
F47: Y -0.112 ± 0.094, V -0.565 ± 0.083, K -0.983 ± 0.2, C -0.728 ± 0.11, E -0.762 ± 0.2, T -0.618 ± 0.095, R -0.941 ± 0.1, P -0.89 ± 0.12, D -0.751 ± 0.13, L -0.639 ± 0.088, G -0.66 ± 0.1, A -0.729 ± 0.1, Q -1.02 ± 0.17, S -0.75 ± 0.084, I -0.408 ± 0.096, H -0.534 ± 0.12, N -0.928 ± 0.13, W -0.399 ± 0.14
Q48: E 0.086 ± 0.14, H -0.407 ± 0.19, A -0.146 ± 0.13, G -0.029 ± 0.085, S -0.022 ± 0.1, W -0.554 ± 0.15, V -0.066 ± 0.12, R -0.071 ± 0.09, L -0.309 ± 0.12, F -0.245 ± 0.19, I -0.085 ± 0.17, K -0.034 ± 0.16, C -0.221 ± 0.18, N -0.259 ± 0.21, T -0.168 ± 0.14
R55: T -0.043 ± 0.089, Q 0.049 ± 0.15, P 0.051 ± 0.075, Y -0.073 ± 0.13, N -0.218 ± 0.16, I -0.093 ± 0.097, A -0.172 ± 0.12, S 0.142 ± 0.075, H 0.104 ± 0.12, K 0.005 ± 0.24, L -0.001 ± 0.074, C -0.229 ± 0.12, F -0.069 ± 0.1, V -0.048 ± 0.11, G -0.128 ± 0.11, W -0.302 ± 0.17, D -0.104 ± 0.2, M -0.211 ± 0.16
A54: G 0.081 ± 0.26
K56: Y -0.158 ± 0.16, N 0.103 ± 0.14, I -0.302 ± 0.16, D -0.026 ± 0.23, Q -0.163 ± 0.41, T -0.032 ± 0.11, P 0.004 ± 0.19, F -0.089 ± 0.24, R -0.028 ± 0.12, A 0.063 ± 0.2, M -0.045 ± 0.22, H -0.053 ± 0.12, G -0.029 ± 0.23
W46: L -1.09 ± 0.15, H -0.617 ± 0.26, D -1.14 ± 0.29, A -0.86 ± 0.15, M -0.81 ± 0.14, V -0.88 ± 0.11, E -0.749 ± 0.13, G -0.856 ± 0.1, S -0.526 ± 0.13, C -0.759 ± 0.2, K -0.764 ± 0.16, P -1.07 ± 0.22, F -0.244 ± 0.19, Q -1.17 ± 0.24, T -0.611 ± 0.18
Q52: F -0.21 ± 0.08, T -0.036 ± 0.07, V 0.128 ± 0.083, C 0.002 ± 0.093, N -0.144 ± 0.088, P -0.263 ± 0.068, A -0.008 ± 0.077, M -0.142 ± 0.11, Y -0.14 ± 0.097, R -0.135 ± 0.071, H -0.092 ± 0.08, D 0.239 ± 0.12, W -0.204 ± 0.12, S -0.023 ± 0.068, K -0.077 ± 0.12, L -0.107 ± 0.065

Variants of: B2
Experiment: as above
Conditions: Homo sapiens

Abundance fitness: each site, then its substitutions
M4: A -0.316 ± 0.086, L -0.145 ± 0.082, P -0.183 ± 0.13, T -0.06 ± 0.11, I -0.068 ± 0.12, N -0.169 ± 0.16, S -0.161 ± 0.091, R -0.157 ± 0.08, K -0.127 ± 0.17, C -0.054 ± 0.12, Q -0.065 ± 0.12, E -0.184 ± 0.12, H -0.009 ± 0.22, V -0.138 ± 0.081, G -0.325 ± 0.071
V6: E -0.092 ± 0.12, F 0.064 ± 0.2, G -0.045 ± 0.072, A -0.132 ± 0.1, D -0.007 ± 0.21, C -0.208 ± 0.13
K5: M -0.083 ± 0.13, R -0.095 ± 0.084, Q -0.113 ± 0.099, D -0.162 ± 0.13, I -0.334 ± 0.17, V -0.176 ± 0.078, E -0.156 ± 0.12, F -0.444 ± 0.15, T -0.056 ± 0.089, P -0.198 ± 0.1, S -0.019 ± 0.091, A -0.158 ± 0.094, C -0.125 ± 0.13, L -0.202 ± 0.08, N -0.035 ± 0.16, G -0.077 ± 0.079, W -0.303 ± 0.11
S2: W -0.379 ± 0.14, K -0.1 ± 0.14, R -0.077 ± 0.091, V -0.156 ± 0.14, Y -0.558 ± 0.4, H 0.085 ± 0.25, C -0.181 ± 0.14, I 0.051 ± 0.27, P -0.243 ± 0.15, M -0.23 ± 0.21, F -0.155 ± 0.22, E 0.034 ± 0.24, D 0.061 ± 0.16, G 0.065 ± 0.097, T 0.019 ± 0.2, N -0.506 ± 0.32, A -0.084 ± 0.1, Q -0.073 ± 0.23
I3: W -0.221 ± 0.092, R -0.125 ± 0.066, M -0.088 ± 0.11, T -0.063 ± 0.1, C -0.129 ± 0.14, N 0.105 ± 0.15, E -0.103 ± 0.087, F -0.282 ± 0.2, D 0.059 ± 0.14, V -0.079 ± 0.064, Q 0.104 ± 0.17, Y -0.327 ± 0.16, A 0.014 ± 0.077, P -0.081 ± 0.096, H -0.144 ± 0.13, S -0.052 ± 0.076, L -0.189 ± 0.075
K1: S -0.176 ± 0.14, Y -0.318 ± 0.34, I -0.262 ± 0.2, V -0.581 ± 0.36, F -0.783 ± 0.4, A -0.398 ± 0.35, C -0.279 ± 0.19, R -0.366 ± 0.12, T -0.155 ± 0.25, M -0.157 ± 0.14, E -0.035 ± 0.12, D -0.199 ± 0.2, L -0.693 ± 0.38
